Experiments:
[1] = system: NC(=O)C1=CN([C@@H]2O[C@H](COP(=O)(O)OP(=O)(O)OC[C@H]3O[C@@H](n4cnc5c(N)ncnc54)[C@H](OP(=O)(O)O)[C@@H]3O)[C@@H](O)[C@H]2O)C=CC1; assay: purified protein; conditions: O2 as electron acceptor (air saturated), 50 mM potassium phosphate pH 6.5, 37 °C, apparent Km
[2] = system: NC(=O)C1=CN([C@@H]2O[C@H](COP(=O)(O)OP(=O)(O)OC[C@H]3O[C@@H](n4cnc5c(N)ncnc54)[C@H](O)[C@@H]3O)[C@@H](O)[C@H]2O)C=CC1; assay: purified protein; conditions: O2 as electron acceptor (air saturated), 50 mM potassium phosphate pH 6.5, 37 °C, apparent Km
[3] = biological target: T1, NADPH oxidase (NPOX) (Bifidobacterium longum, UniProt A0ACD7UUP8); assay: HPLC of flavin extracted from purified enzyme; UV-Vis spectrum; type: binding; conditions: co-purified bound flavin, flavoprotein absorbance maxima […] nm
T1 construct: gene Blon_2447; native enzyme purified from B. infantis cells; 254 residues; 29 kDa by SDS-PAGE
T1 sequence (A0ACD7UUP8 52-305): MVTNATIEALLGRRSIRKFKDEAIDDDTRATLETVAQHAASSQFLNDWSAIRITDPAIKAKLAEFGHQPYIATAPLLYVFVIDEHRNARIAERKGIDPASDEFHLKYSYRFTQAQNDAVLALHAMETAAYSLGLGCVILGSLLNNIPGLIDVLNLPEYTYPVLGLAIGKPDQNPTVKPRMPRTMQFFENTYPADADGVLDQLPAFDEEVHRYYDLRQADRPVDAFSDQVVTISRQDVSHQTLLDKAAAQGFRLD

Compound	Km [1]	Km [2]	HPLC of flavin extracted from purified enzyme; UV-Vis spectrum [3]
NADPH oxidase (NPOX) (Bifidobacterium longum subsp. infantis ATCC 15697 = JCM 1222 = DSM 20088)	1.38 ± 0.12 µM	113.3 ± 7.3 µM	
Cc1cc2nc3c(=O)[nH]c(=O)nc-3n(C[C@H](O)[C@H](O)[C@H](O)COP(=O)(O)O)c2cc1C [FMN]			The bound flavin was identified as FMN by HPLC analysis

Reference: PMC6048055, “O2-inducible H2O2-forming NADPH oxidase is responsible for the hyper O2 sensitivity of Bifidobacterium longum subsp. infantis” (Scientific Reports, 2018)
